± gives the standard error. Variants at the floor of the assay were thinned out.

Consider 34 variants from the supplement of paper PMC7125110.

First the molecules themselves.
B1: glmS ribozyme (parent)
chain: AUAAAAGCGCCAGAACUACAGAAAUGUAGUUGACGAGGAGGAGGUUUAUCGAAUUUUCGGCGGAUGCCUCCAAA

Variants of B1 are the subject of one data set. As to the kind of experiment: self-cleavage kobs at 2500 uM GlcN6P; higher = faster cleavage; RNA array. The note with it: with glucosamine-6-phosphate. The method in brief:
(§1)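 Over ~14 h at 37 °C, tiles were imaged as glucosamine-6-phosphate (40 μM to 10 mM) in HEPES/KCl/Mg(OAc)2 buffer flowed across sequenced MiSeq chips. The chips carried barcoded ribozyme variants transcribed in situ by E. coli RNA polymerase and tracked with a hybridised Cy3 probe. After normalisation to baseline and to non-cleaving reference variants, one- or two-exponential decay fits of per-tile medians gave kobs. kcat and KM followed from weighted Michaelis–Menten fits across concentrations.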
In the case of AUAAAAGCGCCAGAAGUACAGAAAUGUAGUUGACGAAGAGGAGGUUUGUCGAAUUUUCGACGGAGGUCUCCAAA [C16G G37A A48G G60A U65G C67U], the “self-cleavage kobs at 2500 uM GlcN6P” value is below 1e-05 s⁻¹.
Take AUAAAAGCGCCAGAACUACAGAAAUGUAUUUGACGAGGAGGCGGUUUAUCGAAUUUUCGGAGGAUGCCUCCAAA [G29U A42C C61A]: the “self-cleavage kobs at 2500 uM GlcN6P” value was below 1e-05 s⁻¹.
On the same count and under the same terms, for AUAAAAGCUCCAGAACUACAGAAAUGUAGUUGACGUGGAGGAGGUUUAUGGAAGUUACGGCGGAUGUCUCCAAA [G9U A36U C50G U54G U57A C67U] the value was 0.000182 ± 3.6e-05 s⁻¹.
With AUAAAAGCGCCAGAACUACAGAAAUGUAGUUGACGAGGAGGGGGUUUUUCGGAUUUUCGGCGGAUGCCUACAAA [A42G A48U A52G C70A], the “self-cleavage kobs at 2500 uM GlcN6P” value was below 1e-05 s⁻¹.
For AUAAAAGCGCCAGAACUACAGAAAUGUAUUUGACGAGGAGGAGGUUAAUCGAAUUUUCGGCGGAUGCCGCCAAA [G29U U47A U69G], the “self-cleavage kobs at 2500 uM GlcN6P” value stood at 7.38e-05 ± 1.7e-05 s⁻¹.
Same read-out and setting: the result for AUAAAAGCGCCAGAUCUACAGAAAUGUAGUUGACGAGGAGGAGGUUUAUGGAAUUUUCGGCGGAUGCCUACAAA [A15U C50G C70A] reads 0.000427 ± 0.00013 s⁻¹; that for AUAAAAGCGCCAGAUCUACAGAAAUGUAGUUGUCGAGGAGGAGGUUUAUCGAAUUUUCGGCAGAUGCCUCCAAA [A15U A33U G62A], below 1e-05 s⁻¹.
Still for that read-out and setting: the result for AUAAAAGCGCCAAAACUACAGAAAUGUAGUUGACGAGGAGGAGGGUUAUCGAAUUUUCGGCGGGUGCCUCCAAA [G13A U45G A64G] reads 6.3e-05 ± 1.9e-05 s⁻¹.
On the same count and under the same terms, the result for AUAAAAGCUCCAGAACUACAGAAAUGUAGUUGACCAGGAGGUGGUUUAUCGAAUUUUCGGCGGAUGCCUCCAAA [G9U G35C A42U] reads below 1e-05 s⁻¹; that for AUAAAAGCGCCAGAACUACAGAAAUGUAGUUGACGAGGAGGAGGUGUAUCUAAUUUUCAGCGGAUGCCUCCAAA [U46G G51U G59A], below 1e-05 s⁻¹.
Take AUAAAAACGCCAGAACUACAGAAAUGUAGUUGACGAGGAGGAGGAUUAGCGAAUUUUCGGCGGAUGCCUCCAAA [G7A U45A U49G]: the “self-cleavage kobs at 2500 uM GlcN6P” value was below 1e-05 s⁻¹.
AUAAAAGCGCCAGAACUACAGAAAUGUAGUUGACGAGGAGUCGGUUUAUCGAAUUUUCGGAGGAUGCCUCCAAA [G41U A42C C61A]: the “self-cleavage kobs at 2500 uM GlcN6P” value was below 1e-05 s⁻¹.
The same measure, in the same setting: for AUAAAAGCGCCAUAACUACAGAAAUGUAGUUGACGAGGAGGAGGUUCAUCGAAUUUUCGGCGGGUGCCUCCAAA [G13U U47C A64G] the value was 0.000125 ± 3.1e-05 s⁻¹; for AUAAAAGCGCCAGAACUACAGAAAUGUAGUUAACGAGGAGGAGGCUUAUCGAAUUUUCGGCGGAUGCCUCUAAA [G32A U45C C71U], 7.08e-05 ± 2.9e-05 s⁻¹; for AUAAAAGCGCCAGAACUACAGAAAUGUAGUUGUCGAGGAGGAGGUUUUUCGAAUUUUCAGUGGAUGCCUCUAAA [A33U A48U G59A C61U C71U], below 1e-05 s⁻¹.
As for AUAAAAGCGCCAGAACUACAGAAAUGUAAUUGACGAGGAGGAGGUUAAUCGUAUUUUCGGCGGAUGCCUCCAAA [G29A U47A A52U], the “self-cleavage kobs at 2500 uM GlcN6P” value came out at 4.18e-05 ± 1.7e-05 s⁻¹.
On the same count and under the same terms, for AUAAAAGCGCCAGAACUACAGAAAUUUAGUUGACGAGGAGGAGGUUUAUCGAACUUUCUGCGGAUGCCGCCAAA [G26U U54C G59U U69G] the value was below 1e-05 s⁻¹; for AUAAAAGCGCCAGGACUACAGAAAUGUAGUUGACGAGCAGGAGGUUUAUCGAAUUUUCGGUGGAUGCCUCCAAA [A14G G38C C61U], below 1e-05 s⁻¹; for AUAAAAGCGCCACAACUACAGAAAUGUAGUUGACGAGGAGGAGGUUUAUCGAAUUUUGAGCGGAUGCCUCCAAA [G13C C58G G59A], below 1e-05 s⁻¹.
For the variant AUAAAAGCGCCAGUACUACAGAAAUGUAGUUGACGAGGAGGAGGUUUGUCGAAUUUUAGGCGGUUGCCUGCAAA [A14U A48G C58A A64U C70G], the “self-cleavage kobs at 2500 uM GlcN6P” value came to 5.92e-05 ± 2.4e-05 s⁻¹.
Still for that read-out and setting: the result for AUAAAAGCGCCAGAACUACAGAAAUGUAGCUGACCAGGAGGAGGUUUAUAGAAUUUUCGGCGGAUGCAUCCAAA [U30C G35C C50A C68A] reads below 1e-05 s⁻¹; that for AUAAAAGCGCCAGAACUACAGAAAUGUAAUUGACGAGGAGGAGGUUUAUCGAAUUUUCGGCGGACGCCUCCAAA [G29A U65C], 6.71e-05 ± 1.9e-05 s⁻¹.
The same measure, in the same setting: for AUAAAAGCGCCAGAACUACAGAAAUGUAGUUGACGAGCAGCAGGUUUAUCGAAUUUUCGGAGGAUGCCUCGAAA [G38C G41C C61A C71G] the value was below 1e-05 s⁻¹; for AUAAAAGCGCCAGAACUACAGAAAUGUAGUUGACGAGGAGGAGGUUUAUUGAAUUUUCAGCGGAUGCCUGUAAA [C50U G59A C70G C71U], 5.06e-05 ± 1.7e-05 s⁻¹.
Turning to AUAAAAGCGCCAGAACUACAGAAAUGUAGUUUACGAGGAGGCGGUUUAUCGAAAUUUCGGCGGAUGCCUCCAAA [G32U A42C U54A], the “self-cleavage kobs at 2500 uM GlcN6P” value is below 1e-05 s⁻¹.
The same measure, in the same setting: for AUAAAAGCGCCCGAACUACAGAAAUGUAGUUGACGAGGAGGUGGUUUAUCGAAUUUUCGGCGGAUGUCUCCAAA [A12C A42U C67U] the value was 7.04e-05 ± 1.6e-05 s⁻¹; for AUAAAAGCGCCAGAACUACAGAAAUGUAGUUGACGAGGAGGAGGUUUAUCGGACUUUCGGCGGAUGCCUUGAAA [A52G U54C C70U C71G], 7e-05 ± 2.3e-05 s⁻¹; for AUAAAAGCGCCAGAACUACAGAAAUGUAGUUGACGAGGAGGAGGUUUAUCGAAUUGUCGACGGAGGCCUCCAAA [U56G G60A U65G], below 1e-05 s⁻¹.
Regarding AUAAAAGCGCCUGAACUACAGAAAUGUAGUUAACGAGGAGGAGGUUUAUCGAAUUUUCGACGGAUGCCUCCAAA [A12U G32A G60A], the “self-cleavage kobs at 2500 uM GlcN6P” value is below 1e-05 s⁻¹.
On the same count and under the same terms, the result for AUAAAAGCGCAAGAACUACAGAAAUGUAGUUGCCGAGGAGGAGGUUUAUCGACUUUUCGGCGGCUGCCUCCAAA [C11A A33C A53C A64C] reads below 1e-05 s⁻¹; that for AUAAAAGCGCCAGUACUACAGAAAUGUAGAUGACGAGGCGGAGGUUUAUCGAAUUUUCGGCGGAUGCCUCCAAA [A14U U30A A39C], 2.93e-05 ± 1.5e-05 s⁻¹; that for AUAAAAGCGCCAGAACUACAGAAAUGUAGUUGACGAGCAGGAGGUUUAUCGAAUUUUGGUCGGAUGCCUCCAAA [G38C C58G G60U], below 1e-05 s⁻¹.
Regarding AUAAAAGCGCCAGAUCUACAGAAAUGUAGCUGACGAGGAGGAGGUUUAUCGAAUUUUCGGGGGAUGCCUCCAAA [A15U U30C C61G], the “self-cleavage kobs at 2500 uM GlcN6P” value is below 1e-05 s⁻¹.
In the case of AUAAAAGCCCCAGAACUACAGAAAUGUAGAUGACGAGGAGGAGUUUUAUCGAAUUUUCUGUGGAUCCCUUCAAA [G9C U30A G44U G59U C61U G66C C70U], the “self-cleavage kobs at 2500 uM GlcN6P” value is below 1e-05 s⁻¹.

The variants in a further data set derive from B1. Briefly: self-cleavage kobs at 10000 uM GlcN6P; higher = faster cleavage; RNA array. To be noted: with glucosamine-6-phosphate. The essentials: as §1
Take AUAAAAGCGCCAGAACUACAGAAAUGUAUUUGACGAGGAGGCGGUUUAUCGAAUUUUCGGAGGAUGCCUCCAAA [G29U A42C C61A]: the “self-cleavage kobs at 10000 uM GlcN6P” value was below 1e-05 s⁻¹.
On to AUAAAAGCGCCAGAACUACAGAAAUGUAAUUGACGAGGAGGAGGUUUAUCGAAUUUUCGGCGGACGCCUCCAAA [G29A U65C], for which the “self-cleavage kobs at 10000 uM GlcN6P” value was 8.99e-05 ± 3.1e-05 s⁻¹.
In the case of AUAAAAGCGCAAGAACUACAGAAAUGUAGUUGCCGAGGAGGAGGUUUAUCGACUUUUCGGCGGCUGCCUCCAAA [C11A A33C A53C A64C], the “self-cleavage kobs at 10000 uM GlcN6P” value was below 1e-05 s⁻¹.
